Square brackets hold non-standard residues; d marks the D form. Ends that are not written are not given here. dPhe(4-NO2) = N[C@H](Cc1ccc([N+](=O)[O-])cc1)C(=O)O; dPhe(F5) = N[C@H](Cc1c(F)c(F)c(F)c(F)c1F)C(=O)O; dBpa = N[C@H](Cc1ccc(C(=O)c2ccccc2)cc1)C(=O)O; dCha = N[C@H](CC1CCCCC1)C(=O)O
T1: baculovirus derived recombinant human full length Chk1 with histidine tag (human, UniProt O14757 1-476)
T1 sequence: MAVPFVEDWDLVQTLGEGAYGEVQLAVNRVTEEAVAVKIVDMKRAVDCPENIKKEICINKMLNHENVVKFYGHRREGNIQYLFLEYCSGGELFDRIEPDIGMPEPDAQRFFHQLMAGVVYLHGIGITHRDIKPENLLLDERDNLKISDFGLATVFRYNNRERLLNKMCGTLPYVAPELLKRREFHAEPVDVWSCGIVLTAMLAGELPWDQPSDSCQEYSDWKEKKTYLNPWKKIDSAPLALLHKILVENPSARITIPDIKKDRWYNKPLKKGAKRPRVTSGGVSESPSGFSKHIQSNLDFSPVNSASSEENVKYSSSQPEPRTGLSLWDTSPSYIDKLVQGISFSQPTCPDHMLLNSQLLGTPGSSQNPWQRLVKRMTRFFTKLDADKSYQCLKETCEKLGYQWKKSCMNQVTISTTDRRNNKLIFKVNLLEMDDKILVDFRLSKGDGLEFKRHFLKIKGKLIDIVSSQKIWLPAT


Assays:
Assay in all cases: cell-based or functional assay
[1] = biological target: T1, baculovirus derived recombinant human …
[2] = biological target: E. Coli derived recombinant human full length Chk2 fused with GST (human, UniProt O96017 1-543)
[3] = biological target: PKA
[4] = biological target: purified CHK2 kinase

Sequence of E. Coli derived recombinant human full length Chk2 fused with GST (O96017 whole entry, the tested form may be a part): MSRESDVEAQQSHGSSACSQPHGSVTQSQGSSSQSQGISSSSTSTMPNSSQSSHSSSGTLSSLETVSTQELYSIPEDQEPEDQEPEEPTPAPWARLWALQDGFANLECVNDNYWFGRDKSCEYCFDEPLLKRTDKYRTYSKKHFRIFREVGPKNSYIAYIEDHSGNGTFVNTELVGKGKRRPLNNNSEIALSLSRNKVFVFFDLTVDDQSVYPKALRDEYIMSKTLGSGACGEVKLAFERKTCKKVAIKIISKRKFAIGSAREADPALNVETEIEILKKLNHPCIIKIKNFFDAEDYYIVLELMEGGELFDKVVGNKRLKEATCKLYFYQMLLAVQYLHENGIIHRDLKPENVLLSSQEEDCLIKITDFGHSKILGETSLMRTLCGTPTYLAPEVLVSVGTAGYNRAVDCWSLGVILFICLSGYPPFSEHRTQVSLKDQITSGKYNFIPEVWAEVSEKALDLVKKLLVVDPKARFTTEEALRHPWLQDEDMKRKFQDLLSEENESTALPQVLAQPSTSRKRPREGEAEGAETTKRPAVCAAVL

Row | Binder | Kinase inhibition (phosphorylation of serine 216 on GST-Cdc25C 167-267, enzyme linked immune assay) [1] | Kinase inhibition (phosphorylation of serine 216 on GST-Cdc25C 167-267, enzyme linked immune assay) [2] | IC50, kinase inhibition (PepTag Non-Radioactive Protein Kinase Assay) [3] [µM] | IC50, kinase inhibition (PepTag Non-Radioactive Protein Kinase Assay) [4] [µM]
1 | [dY][dBpa][dS][dW][dS][dPhe(F5)][dCha][dR][dR][dR][dQ][dR][dR] [CBP500] | 5.6 | 8 |  | 
2 | [dY][dY][dS]G[dS][dR][dPhe(F5)][dCha][dR][dR][dR][dQ][dR][dR][dK][dK][dR]G[dY] [CBP450] |  |  | > 400 | 10
3 | [dBpa][dS][dW][dS][dPhe(4-NO2)][dCha][dR][dR][dR][dQ][dR][dR] [CBP603] | 15.5 | 18.1 |  | 
4 | [dBpa][dS][dW][dS][dPhe(F5)][dCha][dR][dR][dR][dQ][dR][dR] [CBP501] | 7.9 | 18.6 |  | 
5 | [dBpa][dD][dS][dW][dS][dPhe(F5)][dCha][dR][dR][dR][dQ][dR][dR] [CBP505] | 63.4 | > 100 |  | 
6 | YGRKKRRQRRRXFXYY ((l-Tyr)(l-Gly)(l-Arg)(l-Lys)(l-Lys)(l-Arg)(l-Arg)(l-Gln)(l-Arg)(l-Arg)(l-Arg)(l-Cha)(l-Phe-2,3,4,5,6-F)(l-aminoundecanoic acid)(l-Tyr)(l-Tyr): Cha = cyclohexyl-alanine; Phe-2,3,4,5,6-F = pentafluoro-phenylalanine; aminoundecanoic acid spacer) [CBP440] |  |  | 180 | 8
